Measurements as given in the supplement of paper PMC9170038.

Test system: MS2 coat protein
Experiment: apparent KD of MS2 coat protein; designed switch direction (-1 OFF switch, 1 ON switch): -1; higher = weaker reporter binding
Procedure, shortened: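 Three titration conditions were used: no input, 200 uM small-molecule ligand, and an oligonucleotide input. In each, SNAP-549-labelled MS2 coat protein was raised from 0.7 or 1.5 nM, doubling, to 3 µM over designed RNA switches transcribed on Illumina chips by stalled E. coli RNA polymerase. Curve fits of normalised cluster fluorescence gave values whose per-design median over clusters is the apparent KD.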

[1] = input ligand: microRNA oligo, concentration not stated
[2] = Eterna round: R95, input ligand: FMN 200 uM
[3] = Eterna round: R95, input ligand: microRNA oligo, concentration not stated
[4] = Eterna round: R95, input ligand: none

Sequence: AGAUCACAUGAGGAUCACCCAUGUCAGGAUAUCGUCACUGGAGCUGCGGCUCCAGUGACGAGAAGGGAUAAUUA [E1/4-A3] (Eterna round: R97, puzzle: Exclusion 1)
- apparent KD of MS2 coat protein (input ligand: FMN 200 uM): 92.4 nM
- apparent KD of MS2 coat protein (input ligand: none): 52 nM

Sequence: ACGGUUCUCCUCAGCUACAUGAGGAUCACCCAUGUGACUGAGCAGGAUAUACAUAAGUGCGAAAAGUAGAAGGGCUCGGCGCAC [Xeora] (Eterna round: R96, puzzle: Exclusion NG 3)
- apparent KD of MS2 coat protein (input ligand: FMN 200 uM): 12.2 nM
- apparent KD of MS2 coat protein [1]: 8.75 nM
- apparent KD of MS2 coat protein (input ligand: none): 12.7 nM

Sequence: AGCUGUGGCCGAGGAUAUCACAUGAGGAUCACCCAUGUAUAUGAUUAGGCCUGGUAACAGGCUCGUGAGAAGGCGGUCUCAGCA [Eli eng2 - 012] (Eterna round: R96, puzzle: Exclusion NG 2)
- apparent KD of MS2 coat protein (input ligand: FMN 200 uM): 28.4 nM
- apparent KD of MS2 coat protein [1]: 19.5 nM
- apparent KD of MS2 coat protein (input ligand: none): 31.3 nM

Sequence: UUUUCAUAUGAAGGAUAUACUUAACAUGAGGAUCACCCAUGUGGUGUUGUGAGUGAGUGAGUUUAGUAGAAGGUCAAUUCUUUU [JMF's solution 90] (Eterna round: R96, puzzle: Exclusion NG 2)
- apparent KD of MS2 coat protein (input ligand: FMN 200 uM): 613 nM
- apparent KD of MS2 coat protein [1]: 277 nM
- apparent KD of MS2 coat protein (input ligand: none): 351 nM

Sequence: AAUAAGUGAGGAUAUACUAAAAUAUGAAUAAAAUAAAUAAAACAUGAGGAUCACCCAUGUAGAAGGCACAAUAA [JMF's Not so obvious solution 5] (puzzle: Exclusion 2)
- apparent KD of MS2 coat protein [2]: 22.6 nM
- apparent KD of MS2 coat protein [3]: 23.9 nM
- apparent KD of MS2 coat protein [4]: 22.2 nM

Sequence: GAUCAACAUGAGGAUCACCCAUGUCAGGAUAUGAUACUAUGUACUUCGGUACAUAGUAUCAGAAGGGACAGAUC [Ex1-3: 1] (puzzle: Exclusion 1)
- apparent KD of MS2 coat protein [3]: 101 nM

Sequence: GCUCGUCUUGUAAUGUUUAACAUGAGGAUCACCCAUGUCACCAACGUCGGAGAUGCAGGUUCAUGUUUUAAUGUAUA [Eternabot (L2) Solution 23] (Eterna round: R97, puzzle: Sensor, turn-off variant 1)
- apparent KD of MS2 coat protein (input ligand: FMN 200 uM): 83.5 nM
- apparent KD of MS2 coat protein (input ligand: none): 82.6 nM

Sequence: CCGAGGUAGCGGUCCUAUGACAUGAGGAUCACCCAUGUACCUCGCUACGAGCUUUUUGCUCGUCAUAUAAUUCUCGG [Mat - Sensor v3 - turn-off var 1 - JL Mod - D30] (puzzle: Sensor v3, turn-off variant 1)
- apparent KD of MS2 coat protein [2]: 45.4 nM
- apparent KD of MS2 coat protein [3]: 57.9 nM
- apparent KD of MS2 coat protein [4]: 66.3 nM

Sequence: CAGGAUAGAGGAUAUACAUAGAUACAGAUUCAUGUAAUCCUACAUGAGGAUCACCCAUGUAGAAGGCUAUCCUG [Fiskers Ex 2 - 16] (puzzle: Exclusion 2)
- apparent KD of MS2 coat protein [3]: 15.4 nM

Sequence: GGUGGACAUGAGGAUCACCCAUGUGAGGAUAUCGGCUGGCUAGUGGCUGACGGCUGCUCGAGAAGGCGCAUUGU [Exclusion 1 V86] (puzzle: Exclusion 1)
- apparent KD of MS2 coat protein [3]: 54.7 nM

Sequence: AUUAUGUAAGGAUAUCUUACAUGUGACUUCGGUCACUGUUAAGAGAAGGUACAUGAGGAUCACCCAUGUAUAAC [Ex4-3: 48] (puzzle: Exclusion 4)
- apparent KD of MS2 coat protein [3]: 18.8 nM

Sequence: GUCAUCACACAUGGGAUCAACAUGAGGAUCACCCAUGUUGCCAAGCCGUUUGCACGUCUUAUCAUACGUUUUUCGAU [Mod-Jxj] (Eterna round: R97, puzzle: Sensor, turn-off variant 1)
- apparent KD of MS2 coat protein (input ligand: FMN 200 uM): 90.2 nM
- apparent KD of MS2 coat protein (input ligand: none): 99.8 nM

Sequence: CCACGACAUGAGGAUCACCCAUGUGAGGAUAUGGCCUGAAAAGCGUGAGCAGUUUCUAUCAGAAGGCGCGUGGG [salish99_ex1_r4_063] (Eterna round: R97, puzzle: Exclusion 1)
- apparent KD of MS2 coat protein (input ligand: FMN 200 uM): 137 nM
- apparent KD of MS2 coat protein (input ligand: none): 49.4 nM

Sequence: GGUGCUGGCGCGUCGGUGUUGGUGCAAUAAGCUUGUGAAACAUGAGGAUCACCCAUGUCCUCAUAAGCUCGUCUUAU [salish99_TOv2_r2_086] (puzzle: Sensor v3, turn-off variant 2)
- apparent KD of MS2 coat protein [2]: 17.7 nM
- apparent KD of MS2 coat protein [3]: 529 nM
- apparent KD of MS2 coat protein [4]: 15.9 nM

Sequence: AGAAAGUCAGGAUAUACAUGAGGAUCACCCAUGUAAAGAAAAGAAAGGGAAGGAAGAGGUAGAAGGGACAAGAA [JR_Exclu3_Sub031] (puzzle: Exclusion 3)
- apparent KD of MS2 coat protein [2]: 26.5 nM
- apparent KD of MS2 coat protein [3]: 22.7 nM
- apparent KD of MS2 coat protein [4]: 23 nM

Sequence: AAGAGGUCAGGAUAUACGGAGAGAGGGAGUUGGUUAGGGUAACAUGAGGAUCACCCAUGUAGAAGGGACUAAGA [JR_Exclu2_Sub079] (puzzle: Exclusion 2)
- apparent KD of MS2 coat protein [2]: 23.4 nM
- apparent KD of MS2 coat protein [3]: 23.1 nM
- apparent KD of MS2 coat protein [4]: 25.1 nM

Sequence: AGCCGUCUAGGAUAUACAUAAGAUCGGCAGUCUCCGUCGAGACAUGAGGAUCACCCAUGUAGAAGGAGGCGGGA [EX2 A.22] (Eterna round: R97, puzzle: Exclusion 2)
- apparent KD of MS2 coat protein (input ligand: FMN 200 uM): 208 nM
- apparent KD of MS2 coat protein (input ligand: none): 47.2 nM

Sequence: UAAACAAGCUAAAGAUCCUACAUGAGGAUCACCCAUGUGCUCGUCUUGUAACGUACUGUGACGAAAGUCACGGUACG [JL TOV1 3.10] (Eterna round: R97, puzzle: Sensor, turn-off variant 1)
- apparent KD of MS2 coat protein (input ligand: FMN 200 uM): 194 nM
- apparent KD of MS2 coat protein (input ligand: none): 202 nM
